One sequence from publication PMC4402518 can be followed below.

For this data set, the target named is Hop2;Mnd1 (Giardia lamblia ATCC 50803;Giardia lamblia ATCC 50803) (UniProt E2RTU1). In words: fluorescence anisotropy. The conditions noted are these: Fluorescence anisotropy: 20 mM Tris-HCl pH 7.5, 100 mM NaCl, 5 mM MgCl2, 25 C, 50 nM DNA, triplicate, Exo I assay conditions not in material.

Regarding “GCGGGTAATCCAGATGTTCCACGTGAAACAGAACAACTAA (double strand) [40 bp dsDNA]”, for the setting “5 mM Mg2+”, the Kd turned out to be 100 nM. Besides, the binding signal (fold weaker than with 5 mM Mg2+) (no Mg2+) was found to be 10.
